For the series, the target named is PPAR GAMMA (Mus musculus) (UniProt P37238). Briefly: cell_activity. To be noted: HepG2 per text (Cos per legend); induction vs empty pSG5; amplified by rosiglitazone.

As for “(Rev-DR2)x2 SV40 promoter luciferase reporter”, the activity amounted to 2.5 fold.

The values above are taken from patent US20050032064.
